From paper PMC11818568, “Characterization of Tetrathionate Hydrolase from Acidothermophilic Sulfur-Oxidizing Archaeon Metallosphaera cuprina Ar-4” (International Journal of Molecular Sciences, 2025) come the findings set out here.

Substrate in the data set: O=S(=O)(O)SSS(=O)(=O)O
Put plainly: HPLC discontinuous assay, Michaelis-Menten. Format: biochemical, Metallosphaera cuprina. Particulars: pH 6.0, 95 °C, 1.15 µg enzyme, K2S4O6 varied.

B1: TTHMc (tetrathionate hydrolase, Mcup_1281) (Metallosphaera cuprina Ar-4) (protein)
chain: PSITQIVSQVITPIPQPIVRTYDIYNTTYFPYEVKVTYYPGNATSQNLGLPGSWLVTNGGQSHNAVVDTTCTELIQGVSWQQDFAHMAGAALIPLSAPENMLPGSNVMGTRSALVMLTQMVGEPLGVSLADNLLFVEEDSGPGSIFAVNPLNGQVVWYATGLASYAMNNPIVYNGIVYVTVGDVGFNFANFVHYENGQYSAIHRGMAYGAIYAFNASDGILLWMRFTMGEAMPAPAVYDGILAYSDGGGEFVGVNATTGQTLWMDSIPGLFDSMSSVNYYVMPNGTPLFVAGFTSLTEPFGLLVAVNGITGKMVWNASLPSPNKPFNTGMGDVPPAVDQSLGIVVQSTVANAEPNGTVDTMVLAVNATNGHVLWVTNLGRGYTPPAFKGAVPMIYNNTVFVGAPSLGTEFALNISTGRIIWQTRLNGISLPPTAPGGPRGSATIYDNLLWIAGGPNVYVLNPHNGDLLQQYYVGGRFGIVNPVIAGNTMYLTNSYGWVIAIPLYQVFPLFQYYTNS
notes: native enzyme purified from tetrathionate-grown M. cuprina Ar-4 cells (soluble fraction; DEAE, HIC, size exclusion, Q-Sepharose); no tag; SDS band about 54 kDa; no homodimer observed
Usually Km stands for the substrate concentration at which the rate is half of its maximum. Turning to B1, the Michaelis constant (Km) was found to be 350 µM.
